Data on two molecules can be found in patent US20190359937A1 (INNOVATIVE TARGETING SOLUTIONS, published 2019).

Assay [1] deals with T1, HER2 (as used for the affinity measurement) (UniProt P04626 23-652, limits assumed). Description: affinity of the antibody for HER2; estimated to be several hundred nM, method not stated for this antibody.
Assay [2] deals with T1, HER2 (as used for the affinity …). In words: Biacore, antibody against HER2; format not stated. On the technique in general: In SPR one partner is held on a chip, and binding of the other changes the refractive index at the surface.

B1: anti-HER2 antibody ITS001-V928 (antibody, V domains shown)
VH: QVQLVQSGAEVKKPGASVKVSCKASGYTFTSYGISWVRQAPGQGLEWMGWISAYNGNTNYAQKLQGRVTMTTDTSTSTAYMELRSLRSDDTAVYYCARELAYDAFDIWGQGTMVTVSS
VL: not shown
notes: The KD is told of the antibody before it was made into the IgG-TNFR1 receptor; also called ITS001-V928-based antibody; antibody of C644
Take B1: the Kd (commonly the concentration at which binding is half-saturated) in assay [1] is above 200 nM.

B2: anti-HER2 antibody ITS001-V737 (antibody, V domains shown)
VH: QVQLVQSGAEVKKPGASVKVSCKASGYTFTSYGISWVRQAPGQGLEWMGWISAYNGNTNYAQKLQGRVTMTTDTSTSTAYMELRSLRSDDTAVYYCARELAYDAFDIWGQGTMVTVSS
VL: DIQMTQSPSSLSASVGDRVTITCRASQSISSYLNWYQQKPGKAPKLLIYAASSQAGLSLQSGVPSRFSGSGSGTDFTLTISSLQPEDFATYYCQQSYSTPLTFGGGTKVEIKR
notes: The KD by Biacore is told of the antibody before it was made into the IgG-TNFR1 receptor; also called ITS001-V737-based antibody; antibody of C645
Molecule B2 showed a Kd in assay [2] of 107 nM.
